Test: yeast display, Sf9 membrane polyspecificity reagent, FACS + sequencing; frameworks hold sequencing errors
How it was run: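 Sorting gates, low and high (top ~1%), were placed on anti-HA fluorescence to track expression and on streptavidin fluorescence to track reagent binding. A clone's polyreactivity label is taken from the gate it came out of. The reagent was 10% biotinylated, detergent-solubilized Sf9 membrane, applied for 1 hour at 4 °C to galactose-induced yeast display cells.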

Row | Sequence | polyreactivity (PSR sort gate)
1 | QVQLVESGGGLVQAGGSLRLSCAASGRTCSRYAMGLYRQAPGKERELFAAISKSSGTTSYADSVKGRFSISRDNAKNTVYLQMIRLNPEDTAVYYFAAGITGRYYGVRFSEDYWGQGTQVTVSS | high polyreactivity
2 | QVQLVESGGGLVQAGGSLRLSCAASGRTCYINAMGWYRQAPGKERELVAAISSGGSTNYADSVKGRFTISRDNAKNTVYLQMNSLKPEDTAVYYCNAKYYQGTPVELDYWGQATQVTVSS | low polyreactivity
3 | QVQLVESGGGLVQAGGSLRLSCAASGRTDFNTMGWYRQAPGKERELVAAITSTGRTYYADSVKGRFTISRDNAKNTVYLQMNSLKPEDTAVYFCAAVWRYKGLLLPSYYYWGQGTQVTVSS | high polyreactivity
4 | QVQLVESGGGLVQAGGSLRLSCAASGRTFAAYAMGWYRQAPGKERELVAAIRRGGTTNYADSVKGRFTISRDNAKNTVYLQMNSLKPEDTAVYYCAALAPYSRSWVTYDYWGQGSQVTVSS | low polyreactivity
5 | QVQLVESGGGLVQAGGSLRLSCAASGRTFAAYAMGWYRQAPGKERELVAAIRRGGTTNYADSVKGRFTISRDNAKNTVYLQMNSLKPEDTAVYYCAALAPYSRSWVTYDYWGQGTQVTVSS | low polyreactivity
6 | QVQLVESGGGLVQAGGSLRLSCAASGRTFADNAMGWYRQAPGKERELVASISSGTSTNYADSVKGRFTISRDNAKNTVYLQMNSLKPEDTAVYYCNAYGPIWYTAVLGVGRYYGWTDYWGQGTQVTVSS | low polyreactivity
7 | QVQLVESGGGLVQAGGSLRLSCAASGRTFAFHDRGWYRQAPGNERELVAALTSVASTYYADSVKGRFTISRDNAKNTVYLQMNSLKPEDTAVYYCAADTRSLRPRYQLYGEDSWGQGTQVTVSS | low polyreactivity
8 | QVQLVESGGGLVQAGGSLRLSCAASGRTFAFYAMGWYRQAPGKERELVASISSSGDRTYYADSVKGRFTISRDNAKNTVYLQMNSLKPEDTAVYYCAARWSYTYYYWGQGTQVTVSS | high polyreactivity
9 | QVQLVESGGGLVQAGGSLRLSCAASGRTFAFYAMGWYRQAPGKERELVAVITKSGGITYYADSVKGRFTISRDNAKNTVYLQMKSLKPEDTAVYYCAADYRYTPNYLYYYWGQGTQVTVSS | low polyreactivity
10 | QVQLVESGGGLVQAGGSLRLSCAASGRTFAFYGMGWYRQAPGKERELVATIRGTGGSTYYADSVKGRFTISRDNAKNTVYLQMNSLKPEDTAVYYCNKYLGIQVGSVPHDYWGQGSQVTVSS | high polyreactivity
11 | QVQLVESGGGLVQAGGSLRLSCAASGRTFAGYAMGWYRQAPGKERELVATISRNGGSTYYADSVKGRFTISRDNAKNTVYLQMNSLKPEDTAVYYCAADRRGVVRFSRYRGIYDYWGQGTQVTVSS | high polyreactivity
12 | QVQLVESGGGLVQAGGSLRLSCAASGRTFAHYAMGWYRQAPGKERELVAVITSGGITYYADSVKGRFTISRDNAKNTVYLQMNSLKPEDTAVYYCNVYSYYYSYGSPYDYWGQGTQVTVSS | high polyreactivity
13 | QVQLVESGGGLVQAGGSLRLSCAASGRTFAIYAMGWYRQAPGKERELVAAISGSGGSTYYADSVKGRFTISRDNAKNTVYLQMNSLKPEDTAVYYCAKRVRGHRYDYWGQGTQVTVSS | high polyreactivity
14 | QVQLVESGGGLVQAGGSLRLSCAASGRTFAIYAMGWYRQAPGKERELVATIRGGSTYYADSVKGRFTISRDNAKNTVYLQMNSLKPEDTAVYYCAAEFLYASVYYSYWGQGTQVTVSS | high polyreactivity
15 | QVQLVESGGGLVQAGGSLRLSCAASGRTFAIYAMGWYRQAPGKERELVAVINYSGDRTYYADSVKGRFTISRDNAKNTVYLQMNSLKPEDTAVYYCAAVLEYTSDYLSGENDYWGQGTQVTVSS | low polyreactivity
16 | QVQLVESGGGLVQAGGSLRLSCAASGRTFAKSAMGWSRQAPGKERELVAAIRWSGGSTYYADSVKARFTISRDNAKNTVYLQMNSLKPEDTAVYYCATERFLLGLGYDYWGQGTQVTVSS | high polyreactivity
17 | QVQLVESGGGLVQAGGSLRLSCAASGRTFAKYAMAWYRQAPGKERELVAAINSSGGSTYYADSVKGRFTISRDNAKNTVYLQMNSLKPEDTAVYFCAALGIGSYRRYSGYDYWGQGTQVTVSS | low polyreactivity
18 | QVQLVESGGGLVQAGGSLRLSCAASGRTFAKYAMGLYRQAPGKERELVAAITRGDTTNYADSVKGRFTISRDNAKNTVYLQMNSLKPEDTAVYYCAATPDPPHTYEYWGQGTQVTVSS | low polyreactivity
19 | QVQLVESGGGLVQAGGSLRLSCAASGRTFAKYAMGWYRQAPGKERELVAAITSGGRTNYADSVKGRFTISRDNAKNTVYLQMNSLKPEDTAVYYCAARRYVVGYFQSKMDYWGQGTQVTVSS | high polyreactivity
20 | QVQLVESGGGLVQAGGSLRLSCAASGRTFANNAMGWYRQAPGKERELVAAISFSTVSTYYADSVKGRFTISRDNAKYTVYLQMNSLKPEDTAVYYCAARRLGYYRKVKELVYWGQGTQVTVSS | high polyreactivity

Row | Sequence | polyreactivity (PSR sort gate)
21 | QVQLVESGGGLVQAGGSLRLSCAASGRTFAPYAMGWYRQAPGKERELVAAISWSGGSTYYADSVKGRFTISRDNAKNTVYLQMNSLKPEDTAVYYCAADGGQTEFDYWGQGTQVTVSS | high polyreactivity
22 | QVQLVESGGGLVQAGGSLRLSCAASGRTFAPYAMGWYRQAPGKERQLVAAISQRGGSTYYADSVKGRFTISRDNAKNTVYLQMNSLKPEDTAIYYCAATKYFYRLSSAFSFGTYGYWGQGTQVTVSS | low polyreactivity
23 | QVQLVESGGGLVQAGGSLRLSCAASGRTFAPYVMGWYRQAPGKERELVAAITLSGDSTDYADSVKGRFTISRDNAKNTVYLQMNSLKPEDTAVYYCNVEYLSYTSYFHYYEYDYWGQGSQVTVSS | low polyreactivity
24 | QVQLVESGGGLVQAGGSLRLSCAASGRTFAQYGMVWYRQAPGKEMELVAAISRRTGSTNYADSVKGRFTISRDNAKNTVYLQMNSLKPEDTAVYYCAARSYSYGVGYGYWGQGTQVTVSS | high polyreactivity
25 | QVQLVESGGGLVQAGGSLRLSCAASGRTFARNAMGWYRQAPGKERELVASINRGGRTNYADSVKGRFTISRDNAKNTVYLQMNSLKPEDTAVYYCAKYILGVGPFFSTYDYWGQGTQVTVSS | high polyreactivity
26 | QVQLVESGGGLVQAGGSLRLSCAASGRTFARYALGWYRQAPGKERELVAAISWSGGSTYYADSVKGRFTISRDNAKNTVYLQMNSLKPEDTAVDYCAAGYGARSAKFDVYGTNEGDYWGQGTQVTVSS | high polyreactivity
27 | QVQLVESGGGLVQAGGSLRLSCAASGRTFARYAMGWYRQAPGKEREFVAGINWSGGGTYYADSVKGRFTISRDNAKNTVYLQMNSLKPEDTAVYYCASYTSVRPKLDYWGLGTQVTVSS | high polyreactivity
28 | QVQLVESGGGLVQAGGSLRLSCAASGRTFARYAMGWYRQAPGKERELVAAINRSGGSTYYADSVKGRFTISRDNAKNTVYLQMNSLKPEDTAVYYCNARDPYTYRYSYYYWGQGTQVTVSS | high polyreactivity
29 | QVQLVESGGGLVQAGGSLRLSCAASGRTFARYAMGWYRQAPGKERELVAAISSSGGSTYYADSVKGRFTISRDNAKNTVYLQMNSLKQEDTAVYYCVTYRNWWYDYWGQGTQVTVSS | high polyreactivity
30 | QVQLVESGGGLVQAGGSLRLSCAASGRTFASNAMGWYRQAPGKERELVAAITRGGSTYYADSVKGRFTISRDNAKNTVYLQMNSLKPEDTAVYYCAADRWWYQNEVDYWGQGTQVTVSS | low polyreactivity
31 | QVQLVESGGGLVQAGGSLRLSCAASGRTFASYAMGWYRQAPGKERDFVASISRRGGSTNYADSVKGRFTISRDNAKNTVYLQMNSLIPEDNAVYYCAKRFTLPLSEYDYWGQGTQVTVSS | high polyreactivity
32 | QVQLVESGGGLVQAGGSLRLSCAASGRTFASYAMGWYRQAPGKERELVAGITSGGNTYYADSVKGRFTISRDNAKNTVYLQMNSLKPEDTAVYYCNAVRRVSSAGEFDYWGQGTQVTVSS | high polyreactivity
33 | QVQLVESGGGLVQAGGSLRLSCAASGRTFASYTMGWYRQAPGKERELVAAISRGGNTYYADSVKGRFTISRDNAKNTVYLQMNSLKPEDTAVYYCAATAVKYDRRFYYWGQGTQVTVSS | high polyreactivity
34 | QVQLVESGGGLVQAGGSLRLSCAASGRTFATYAMGWYRQAPGKEREFVAVIDGSGGSTYYADSVKGRFTISRDNAKNTVYLQMNSLKPEDTAVYYCAATSRRKVPNIRKSYGYWGQGTQVTVSS | high polyreactivity
35 | QVQLVESGGGLVQAGGSLRLSCAASGRTFATYVMGWYRQAPGKERELVAAISLSGGSTYYADSVKGRFTISRDNAKNTVFLQMNSVKPEDTAVYYCAISWVTSSDYWGQGTQVTVSS | low polyreactivity
36 | QVQLVESGGGLVQAGGSLRLSCAASGRTFAVNAMGWYRQAPGTERELVAAISLSGGRTYYADSVKGRFTISRDNAKNTVSLQMNSLKPEDTAVYYCAASRHFARHRGYYFRYDYWGQGTQVTVSS | high polyreactivity
37 | QVQLVESGGGLVQAGGSLRLSCAASGRTFAVYAMGWYRQAPGKERELVAAISSTGGTYYADSVKGRFTISRDNAKNTVYLQMNSLKPEDTAVYYCAATFIQVVVNVQLYDYDYWGQGTQVTVSS | low polyreactivity
38 | QVQLVESGGGLVQAGGSLRLSCAASGRTFAWYTMGWYRQAPGKERELVAAISGSGGSTYYADSVKGRFTISRDNAKNTVYLQMNSLKPEDTAVYYCSRRVDSYYGHTRYYYWGQGTQVTVSS | high polyreactivity
39 | QVQLVESGGGLVQAGGSLRLSCAASGRTFAYHTMGWYRQAPGKERELVARINSGTSTYYADSVKGRFTISRDNEKNTVYLQMNSLKPEDTAVYYCAARGSESIRWYVGGRYGYWGQGTQVTVSS | low polyreactivity
40 | QVQLVESGGGLVQAGGSLRLSCAASGRTFAYNAMGWYRPAPGKEREFVAGISRSGGSTYYADSVKGRFTISRDNAKNTVYLQMNSLKPEDTAVYYCAAQFYALPNVGTKYYSWGQGTQVTVSS | low polyreactivity
